T1: full length human KLRG1 (human, UniProt Q96E93 1-195)
T1 sequence (looked up): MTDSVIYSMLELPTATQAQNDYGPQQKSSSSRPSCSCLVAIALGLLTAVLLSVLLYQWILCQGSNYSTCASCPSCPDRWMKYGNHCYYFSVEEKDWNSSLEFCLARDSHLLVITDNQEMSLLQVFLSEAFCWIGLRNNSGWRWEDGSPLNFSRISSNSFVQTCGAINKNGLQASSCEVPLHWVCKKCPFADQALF

T2: full length cynomolgus KLRG1 (cynomolgus, UniProt A0A2K5WAP9 1-186)
T2 construct: whole, on cells; also called Cyno KLRG1; CHO-cynomolgus-KLRG1
T2 sequence: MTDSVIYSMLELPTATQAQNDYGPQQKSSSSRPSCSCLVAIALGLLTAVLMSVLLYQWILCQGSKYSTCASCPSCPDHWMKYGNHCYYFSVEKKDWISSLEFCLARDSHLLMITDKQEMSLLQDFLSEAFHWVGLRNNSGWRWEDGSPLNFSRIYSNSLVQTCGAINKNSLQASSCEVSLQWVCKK

T3: cynomolgus KLRG1 ECD (cynomolgus, biotinylated in the OCTET assay, site not stated)
T3 construct: Recombinant proteins were made as FC fusion or as HIS tagged versions; also called cynonolgus KLRG1 ECD
T3 chain: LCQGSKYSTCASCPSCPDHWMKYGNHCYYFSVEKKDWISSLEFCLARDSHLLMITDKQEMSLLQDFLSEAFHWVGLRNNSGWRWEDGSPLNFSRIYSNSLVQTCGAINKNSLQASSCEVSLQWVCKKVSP

T4: human KLRG1 ECD (human, UniProt Q96E93 60-186, biotinylated in the OCTET assay, site not stated)
T4 construct: Recombinant proteins were made as FC fusion or as HIS tagged versions; also called Human-KLRG-ECD
T4 sequence: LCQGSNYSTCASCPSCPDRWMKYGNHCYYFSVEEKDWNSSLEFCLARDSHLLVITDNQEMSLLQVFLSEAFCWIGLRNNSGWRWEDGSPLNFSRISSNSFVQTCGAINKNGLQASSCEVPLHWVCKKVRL


Legend:
full length human KLRG1 [1] = target: T1, full length human KLRG1; assay: cell-based or functional assay
full length human KLRG1 [2] = target: T1, full length human KLRG1; assay: FACS competition, loss of HIS tagged E-cadherin binding to CHO-hKLRG1 cells
Description: The ability of monoclonal antibodies to inhibit E-cadherin/KLRG1 binding was measured by FACS. Binding of E-cadherin to CHO-hKLRG1 cells was first determined by incubating the KLRG1 expressing cells with varying concentration of HIS tagged recombinant E-cadherin and detected by FACS with anti-HIS detection antibody.

[3] = target: T2, full length cynomolgus KLRG1; assay: FACS on CHO-cynomolgus-KLRG1 cells
Description: (§1) Binding of anti-KLRG1 monoclonal antibodies to cell expressed human and cynomolgus-KLRG1 was carried out by FACS. Chinese hamster ovary (CHO) cells were stably transfected to express full length human KLRG1 (CHO-human-KLRG1) and cynomolgus KLRG1 (CHO-cynomolgus-KLRG1).

full length human KLRG1 [4] = target: T1, full length human KLRG1; assay: FACS on CHO-human-KLRG1 cells
Description: as §1

cynomolgus KLRG1 ECD [5] = target: T3, cynomolgus KLRG1 ECD; assay: hybridoma screen for binding to KLRG1 ECD
full length human KLRG1 [6] = target: T1, full length human KLRG1; assay: cell-based or functional assay; remark: listed apart in the source
human KLRG1 ECD = target: T4, human KLRG1 ECD; assay: BLI (OCTET), biotinylated antigen on streptavidin sensor, 1:1 fit
Description: (§2) Binding kinetics of humanized antibodies for human and cynomolgus KLRG1 were determined by OCTET® measurement. OCTET® Systems use Bio-Layer Interferometry (BLI) technology to monitor the binding of proteins and other biomolecules to their partners directly in real time, providing analysis of kinetic binding constants. See https.//www.fortebio.com/bli-technology.html, the contents of which, including all links and sublinks associated therewith, is incorporated by reference herein in its entirety. The experimental set-up consists of immobilizing biotinylated recombinant antigen (Human-KLRG-ECD or cynomolgus-KLRG1-ECD) on streptavidin OCTET® sensor to produce antigen loaded sensors. The loaded sensors are the exposed to varying concentrations of each humanized antibody from 100 to 0.1 nM in the OCTET® instruments and data collected for 600 seconds to measure association kinetic (Kₒₙ) of the antibody/antigen complex. […] Kinetic binding parameters derived by this method are summarized in Table 9 for the three humanized antibodies.

cynomolgus KLRG1 ECD [7] = target: T3, cynomolgus KLRG1 ECD; assay: as above
Description: as §2

| Binder | IFNγ released (pg/ml), Sample 1 (full length human KLRG1 [1]) | IFNγ released (pg/ml), Sample 2 (full length human KLRG1 [1]) | IC50 (full length human KLRG1 [2]) | EC50 [3] | EC50 (full length human KLRG1 [4]) | binding result (cynomolgus KLRG1 ECD [5]) | IFNγ (full length human KLRG1 [6]) | Kd (human KLRG1 ECD) | koff (human KLRG1 ECD) | kon (human KLRG1 ECD) | Kd (cynomolgus KLRG1 ECD [7]) | koff (cynomolgus KLRG1 ECD [7]) | kon (cynomolgus KLRG1 ECD [7]) |
| --- | --- | --- | --- | --- | --- | --- | --- | --- | --- | --- | --- | --- | --- |
| ABC_G1N06 (antibody, V domains shown, Mouse hybridoma monoclonal antibody) VH: QVQLKQSGPGLVQPSQSLSITCTVSGFSLTTHAVHWVRQSPGKGLDWLGVIWSGGNTDYNAAFISRLTISKDNSKSQVFFKMNSLQADDTAIYYCVRLLLPAMDYWGQGTSVTVSS VL: QIVLTQSPAIMSASLGERVTMTCTATSSVSSTYLHWYRQKPGSSPKLWIYSTSTLASGVPVRFRGSGSGTSYSLTISSMEAEDAATYYCHQYRRSPYTFGGGTKLEIK | 1020 pg/mL | 1140 pg/mL | 41 nM | 1.5 nM | 1.43 nM | binds |  |  |  |  |  |  |  |
| ABC_G1N04 (antibody, V domains shown, Mouse hybridoma monoclonal antibody) VH: DVQLVESGGGLVQPGGSRKLSCAASGFSFSTFGMHWVRQVPEKGLEWVAYISSGSYSIFYADSVKGRFTISRDNPKNTLFLQMTSLRSEDTAIYYCTRTRDSGSSPHYFDYWGQGTTVTVSS VL: not shown | 987 pg/mL | 1000 pg/mL |  | 0.47 nM | 29 nM | binds |  |  |  |  |  |  |  |
| ABC_G1N01 (antibody, V domains shown, Mouse hybridoma monoclonal antibody) VH: QVILKESGPGILQPSQTLSLTCSFSGFSLTTFGMGIGWIRHPSGKALEWLAHIWWNDDKSYNSALKSRLTISKDTSKNQVFLRLANVATADTATYYCARTIYYGNYLTFYAMEHWGQGTSVTVSS VL: DVLLTQTPLSLPVSLGDQASISCRSSQNIVHSNGNTYLEWYLLKPGQSPKLLIFKVSNRFSGVPDKFSGSGSGTDFTLKIRRVEAEDLGIYYCFQGSHVPPTFGAGTKLELK | 1190 pg/mL | 1220 pg/mL | 12.2 nM | 1.45 nM | 1.21 nM | binds | 1200 pg/mL |  |  |  |  |  |  |
| ABC_HG1N02 (antibody, IgG1, V domains shown) VH: QVTLKESGPGLVKPTQTLTLTCTFSGFSLSTFGMGVGWIRQPPGKALEWLAHIWWDDDKWYELALKSRLTISKDSSKNQVVLTMTNMDPVDTATYYCARVIYYGSRSAYYSMDYWGPGTTVTVSS VL: DILMTQSPLSLPVTPGEPASISCKSSQSIVHSNGHTYLEWYLQKPGQSPRLLIYKVSNRFSGVPDRFSGSGSGTDFTLKISRVEAEDVGVYYCFQGSHVPVTFGAGTKLELKR |  |  |  |  |  |  |  | 0.243 nM | 0.000681 s⁻¹ | 2.8e+06 M⁻¹ s⁻¹ | 0.0647 nM | 4.07e-05 s⁻¹ | 630000 M⁻¹ s⁻¹ |
| ABC_HG1N07 (antibody, IgG1, V domains shown) VH: QVQLVESGGGLVKPGGSLRLSCAASGFTFRNYAMSWIRQTPGKGLEWVATISESGNYNNYPDNVKGRLTISRDNAKNSLYLQMNSLKAEDTAVYYCVRDDWEGRAMDYWGQGTTVTVSS VL: DIQMTQSPSSLSASVGDRVTITCRASRDIGSSLNWYQQKPGGAPKRLIYATSSLDSGVPKRFSGSGSGTDFTLTISSLQSEDFATYYCLQYASSPWTFGQGTKVEIKR |  |  |  |  |  |  |  | < 0.0051 nM | < 1e-05 s⁻¹ | 1.97e+06 M⁻¹ s⁻¹ | 1.42 nM | 0.00125 s⁻¹ | 880000 M⁻¹ s⁻¹ |

Results, then the binder that gave them:

| IFNγ released (pg/ml), Sample 1 (full length human KLRG1 [1]) | IFNγ released (pg/ml), Sample 2 (full length human KLRG1 [1]) | IC50 (full length human KLRG1 [2]) | EC50 [3] | EC50 (full length human KLRG1 [4]) | binding result (cynomolgus KLRG1 ECD [5]) | IFNγ (full length human KLRG1 [6]) | Kd (human KLRG1 ECD) | koff (human KLRG1 ECD) | kon (human KLRG1 ECD) | Kd (cynomolgus KLRG1 ECD [7]) | koff (cynomolgus KLRG1 ECD [7]) | kon (cynomolgus KLRG1 ECD [7]) | Binder |
| --- | --- | --- | --- | --- | --- | --- | --- | --- | --- | --- | --- | --- | --- |
| 934 pg/mL | 869 pg/mL |  | 1.06 nM | 1.3 nM | binds |  |  |  |  |  |  |  | ABC_G1N03 (antibody, V domains shown, Mouse hybridoma monoclonal antibody) VH: QVHLQQSGPELVKPGASVKLSCKASGDTFTTYDITWVKQRPGQGLEWIGWIYPKDGRTQNSEKFKDKATLTVDTSSTTAYMELHSLTSEDSAVYFCARRGQFGPYFDHWGQGSTLTVSS VL: VIQMTQSSSFLSASLGGRVSITCRASDHIYNWLAWYQQKPGNAPRLLISGATSLETGIPSRFSGGGSGKDYTLTIISLQTEDIASYYCQQYWNTPPTFGGGTKVEIK |
|  |  |  |  |  |  |  | 0.125 nM | 0.000287 s⁻¹ | 2.29e+06 M⁻¹ s⁻¹ | 0.0617 nM | 4.1e-05 s⁻¹ | 664000 M⁻¹ s⁻¹ | ABC_HG1N01 (antibody, IgG1, V domains shown) VH: QVILKESGPGLVKPTQTLTLTCTFSGFSLTTFGMGIGWIRQPPGKALEWLAHIWWNDDKSYNSALKSRLTISKDTSKNQVVLTMTNMDPVDTATYYCARTIYYGNYLTFYAMEHWGQGTTVTVSS VL: DILMTQSPLSLPVTPGEPASISCRSSQNIVHSNGNTYLEWYLQKPGQSPRLLIYKVSNRFSGVPDRFSGSGSGTDFTLKISRVEAEDVGVYYCFQGSHVPPTFGAGTKLELKR |
